Experimental data from paper PMC7969030.

Assays:
[1] = molecular target: T1, Kuwt (Bacillus subtilis, UniProt O34859 1-311); experiment: SPR
T1 sequence: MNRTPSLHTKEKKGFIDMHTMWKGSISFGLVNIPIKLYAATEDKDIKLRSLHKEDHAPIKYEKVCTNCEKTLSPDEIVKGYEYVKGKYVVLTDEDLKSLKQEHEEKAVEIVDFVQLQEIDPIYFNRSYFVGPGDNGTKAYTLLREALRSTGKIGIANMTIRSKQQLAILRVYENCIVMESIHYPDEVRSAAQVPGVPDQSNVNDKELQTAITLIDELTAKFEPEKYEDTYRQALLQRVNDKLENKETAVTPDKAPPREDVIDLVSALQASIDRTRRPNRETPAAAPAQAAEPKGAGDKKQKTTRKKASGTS

[2] = molecular target: T2, Kucore (Bacillus subtilis, UniProt O34859 1-253); experiment: SPR
T2 sequence: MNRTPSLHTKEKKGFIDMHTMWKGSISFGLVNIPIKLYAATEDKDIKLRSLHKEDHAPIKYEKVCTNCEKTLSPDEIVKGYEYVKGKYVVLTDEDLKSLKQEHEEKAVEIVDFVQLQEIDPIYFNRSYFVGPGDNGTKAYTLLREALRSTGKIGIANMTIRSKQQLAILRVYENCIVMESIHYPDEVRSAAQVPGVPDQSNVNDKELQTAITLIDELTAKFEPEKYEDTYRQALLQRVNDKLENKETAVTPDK

[3] = molecular target: T1, Kuwt; experiment: EMSA
[4] = molecular target: T2, Kucore; experiment: EMSA
[5] = molecular target: T3, Kuwt;LigD (Bacillus subtilis;Bacillus subtilis, UniProt O34859;O34398 1-311;1-611, |); experiment: EMSA
T3 sequence 1: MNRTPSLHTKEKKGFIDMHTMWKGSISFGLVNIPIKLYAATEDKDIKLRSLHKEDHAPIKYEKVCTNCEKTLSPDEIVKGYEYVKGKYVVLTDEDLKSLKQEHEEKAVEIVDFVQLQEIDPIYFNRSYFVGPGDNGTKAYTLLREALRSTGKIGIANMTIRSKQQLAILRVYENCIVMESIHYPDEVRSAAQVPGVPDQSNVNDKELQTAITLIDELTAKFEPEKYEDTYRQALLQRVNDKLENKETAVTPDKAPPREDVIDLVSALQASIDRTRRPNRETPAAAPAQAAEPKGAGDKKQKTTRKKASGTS
T3 sequence 2: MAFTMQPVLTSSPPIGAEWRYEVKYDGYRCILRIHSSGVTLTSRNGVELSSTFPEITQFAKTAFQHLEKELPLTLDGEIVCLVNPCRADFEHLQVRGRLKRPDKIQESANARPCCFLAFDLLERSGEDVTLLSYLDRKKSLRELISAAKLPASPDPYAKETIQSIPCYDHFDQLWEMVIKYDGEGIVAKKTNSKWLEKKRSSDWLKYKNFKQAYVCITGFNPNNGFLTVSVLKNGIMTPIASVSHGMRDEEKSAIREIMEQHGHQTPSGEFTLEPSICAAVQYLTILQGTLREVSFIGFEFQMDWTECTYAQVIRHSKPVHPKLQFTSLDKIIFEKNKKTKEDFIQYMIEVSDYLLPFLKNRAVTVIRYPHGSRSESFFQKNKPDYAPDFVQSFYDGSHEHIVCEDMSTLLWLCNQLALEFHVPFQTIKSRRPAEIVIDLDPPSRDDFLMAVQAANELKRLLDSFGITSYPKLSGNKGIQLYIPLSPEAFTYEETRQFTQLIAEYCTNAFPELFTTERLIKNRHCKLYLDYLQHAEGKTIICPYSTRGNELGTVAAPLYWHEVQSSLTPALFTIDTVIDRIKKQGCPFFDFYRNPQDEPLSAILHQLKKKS

B1: 50 bp blunt DNA (SPR) (dsDNA)
DNA 1: CCTCTAGACCTGTACTACTCGAGAGATCGATCGACAGACGATGACTTAGC
DNA 2: GCTAAGTCATCGTCTGTCGATCGATCTCTCGAGTAGTACAGGTCTAGAGG
modifications: 5' biotin on one strand
B1 gave a Kd [1] of 6.7 nM and a Kd [2] of 9.3 nM.

B2: 50 bp DNA with 4 nt overhang (dsDNA)
DNA 1: CCTCTAGACCTGTACTACTCGAGAGATCGATCGACAGACGATGACTTAGC
DNA 2: CTGAGCTAAGTCATCGTCTGTCGATCGATCTCTCGAGTAGTACAGGTCTAGAGG
modifications: 5' 6-FAM on one strand
B2: binds [3]; binds [4].

B3: 50 bp blunt DNA (EMSA, photobleaching) (dsDNA)
DNA 1: CCTCTAGACCTGTACTACTCGAGAGATCGATCGACAGACGATGACTTAGC
DNA 2: GCTAAGTCATCGTCTGTCGATCGATCTCTCGAGTAGTACAGGTCTAGAGG
modifications: 5' 6-FAM on one strand (EMSA)
B3: binds [5].
